These results are taken from paper PMC5774762.

As usually defined, the Kd is the concentration at which binding is half-saturated. Usually koff stands for the first-order rate constant of dissociation. A lower koff goes with a long-lived complex. What is called kon is the second-order rate constant of association. Read a low kon as slow association.

The target of assay [1] is SUMO1 conjugated to agarose beads (UniProt P63165). Description: pull-down; SUMO1 beads, binding of KmUTAG over time (min); percent of total protein bound.
For assay [2] the target is unchanged. The assay is described as follows: pull-down; SUMO1 beads, 45 min in the presence of hydrogen peroxide (concentration not told); percent of total protein bound.
Assay [3] shares this target. The assay is described as follows: pull-down; SUMO1 beads, with TCEP, at 42°C; bound UTAG quantitated from the stained gel against room temperature.
For assay [4] the target is unchanged. Description: pull-down; SUMO1 beads with 2.0 M urea, 5 mM TCEP; quantitated against the reaction without urea.
Assay [5] concerns the target biotinylated SUMO1 (UniProt P63165). Description: BLI; biotinylated SUMO1 on streptavidin sensors (Octet QK); UTAG as analyte 4-250 nM; 25°C; HBS-T (10 mM HEPES pH 7.4, 150 mM NaCl, 0.05% Tween 20); association 300 s, dissociation 300 s; global single-state fit.
Assay [6] has as its target SUMO1 (Homo sapiens) (UniProt P63165). The conditions noted are these: cited from earlier work.
Assay [7] has as its target SUMO1 conjugated to agarose beads (UniProt P63165). Description: pull-down; SUMO1 beads with various concentrations of hydrogen peroxide (0.006% named in the text); quantitated from the stained gel.
For assay [8] the target is unchanged. Description: pull-down; SUMO1-conjugated agarose beads in buffer with hydrogen peroxide (0.6% in the text, 1% in the legend) instead of TCEP; quantitated from the stained gel.

As to “KmUTAG, catalytically inactive (C517S) UD domain of Kluyveromyces marxianus Ulp1, MBP/His6 fusion (from UniProt A0ABX6EQA7 1-555) (domain or fragment)”, in assay [1], the percent of the protein bound after 45 minutes came to 70% and the percent of the protein bound within 15 minutes is 50%. Moreover, in assay [2], the percent of the protein bound after 45 minutes in the presence of peroxide came to 60%. The same substance registered a percent reduction of binding at 42°C against room temperature in assay [3] of 25%. Moreover, in assay [4], the percent reduction of binding in 2M urea was determined as 23%. In assay [5], this substance had a KD after elimination of the top two analyte traces of 8.7 nM, a dissociation constant Kd of 8.7 nM, a koff of 0.00084 s⁻¹ and a kon of 96000 M⁻¹ s⁻¹.
ScUTAG (from UniProt Q02724): the Kd in assay [6] is 12.8 nM.
In assay [7], “ScUTAG, catalytically inactive (C580S) UD domain of Saccharomyces cerevisiae Ulp1, MBP/His6 fusion (from UniProt Q02724 1-621) (domain or fragment)” came in with a percent reduction of binding with 0.006% peroxide of 50%. The percent of binding left in the presence of 0.6% H2O2 in assay [8] was 17%. The percent reduction of binding at 42°C against room temperature in assay [3] worked out at 87%. For the same substance, the percent reduction of binding in 2M urea in assay [4] worked out at 82%. In assay [5], this substance returned a dissociation constant Kd of 2 nM, a koff of 4.2e-05 s⁻¹ and an on-rate (kon) of 21000 M⁻¹ s⁻¹.
